Measurements reported in the Immune Epitope Database (IEDB).

Molecular target: HLA-A*02:03
Assay: IEDB peptide-MHC binding, purified MHC/competitive/radioactivity; ≥ and ≤ were set here for values at or beyond the usual limits of such assays
Conditions: source organism: SARS-CoV1

Sequence | IC50 [nM]
ALDGVLSTFV | 28
ALLADKFPV | 604
ALLFLMSFT | 1990
AMWLLLLSI | 205
LMYKGLPWNV | 5.3
YVVVHGYFT | 792

Same assay, conditions: source organism: Vaccinia virus WR

Sequence | IC50 [nM]
AAVTLNRIKI | 3490
ALALEQYGI | 40
ALCKVTVPT | 130
ALEQYGIENT | 2160
ALLSCIRNA | 6.2
AVKFAEESYT | 1470
DVNSVQFSIL | 1660
EATFIDVHI | 862
ELAYYNSCML | 151
ELIDVLKTRL | 118
ETMYLTMKAI | 25
FVNFNSVKNL | 318
IAIFNNRNLA | 1480
ILKDPRIASI | 1030
ITRLEVIGLT | 219
IVFGIYKDNL | 792
KINEMVDELV | 492
KTPDYPLIDI | 249
KTVKNVDII | 1790
LITLILSNKL | 293
LTGTFVTAFI | 596
LTSVDIETAI | 2150
LVAEHRFENM | 462
LVFNSISARA | 254

Sequence | IC50 [nM]
LVKESMASL | 9.5
NASKTINALV | 274
NIKISLNEIL | 1390
NITTLLNET | 2900
NITTLLNETA | 106
PASISSVLTI | 83
PLHIVCSKT | 2150
RQDYRRSINV | 375
SAEVERLMEL | 2500
SAVFKDSFL | 536
SIAMLKSKNI | 55
SIMSMMNIT | 681
SIRCVKYLL | 56
STAEQLSKYV | 1870
STFNMWREIL | 907
TITTFIPISA | 176
TIVSRSSRGV | 11
TTNNLLEQL | 1420
VLPFDIKYI | 9.7
YAGTIKESL | 2490
YAGTIKESLL | 4040
YIESKAKQL | 439
YTFAISYCRA | 38
YVIRHVDGKI | 114

Molecular target: HLA-A*02:06
Assay: as above
Conditions: source organism: Hepacivirus hominis

Sequence | IC50 [nM]
ALDCQIYGA | 1200
ALLRMCALV | 417
ALLSCLTTPA | 231
LLGCIITSL | 3130
MMMNWSPTT | 1230

Same assay, conditions: source organism: Influenza A virus

Sequence | IC50 [nM]
AIMDKNIML | 304
AMDSNTLEL | 1950
ATAGLTHMMI | 2200
GLISLILQI | 205
RLIDFLKDV | 65

Same assay, conditions: source organism: Mammarenavirus brazilense

Sequence | IC50 [nM]
LSNCVHPAV | 461

Same assay, conditions: source organism: Mammarenavirus choriomeningitidis

Sequence | IC50 [nM]
ALMDCIIFES | 13
LNMFVSDQV | 4810

Same assay, conditions: source organism: SARS-CoV1

Sequence | IC50 [nM]
AIYVFCISL | 48
ALDGVLSTFV | 140
ALLADKFPV | 23
ALLFLMSFT | 128
AMWLLLLSI | 268
LMYKGLPWNV | 37
YVVVHGYFT | 171

Same assay, conditions: source organism: Vaccinia virus WR

Sequence | IC50 [nM]
AAVTLNRIKI | 1920
ALALEQYGI | 548
ALCKVTVPT | 210
ALEQYGIENT | 1270
ALLSCIRNA | 77
AVKFAEESYT | 2260
DVNSVQFSIL | 3400
EATFIDVHI | 3430
ELAYYNSCML | 3570
ELIDVLKTRL | 1990
ETMYLTMKAI | 3580
FVNFNSVKNL | 2200
IAIFNNRNLA | 890
ILKDPRIASI | 4000
ITRLEVIGLT | 967
IVFGIYKDNL | 48
KINEMVDELV | 3060
KTPDYPLIDI | 725
KTVKNVDII | 698
LITLILSNKL | 633
LTGTFVTAFI | 413
LTSVDIETAI | 3130
LVAEHRFENM | 723
LVFNSISARA | 702

Sequence | IC50 [nM]
LVKESMASL | 136
NASKTINALV | 3220
NIKISLNEIL | 557
NITTLLNET | 2310
NITTLLNETA | 1130
PASISSVLTI | 1550
PLHIVCSKT | 3890
RQDYRRSINV | 2220
SAEVERLMEL | 1250
SAVFKDSFL | 1140
SIAMLKSKNI | 259
SIMSMMNIT | 1760
SIRCVKYLL | 2880
STAEQLSKYV | 697
STFNMWREIL | 3360
TITTFIPISA | 4840
TIVSRSSRGV | 3740
TTNNLLEQL | 3040
VLPFDIKYI | 506
YAGTIKESL | 3300
YAGTIKESLL | 1760
YIESKAKQL | 2990
YTFAISYCRA | 37
YVIRHVDGKI | 522

Molecular target: HLA-A*68:02
Assay: as above
Conditions: source organism: Influenza A virus

Sequence | IC50 [nM]
ATAGLTHMMI | 138

Same assay, conditions: source organism: Mammarenavirus brazilense

Sequence | IC50 [nM]
LSNCVHPAV | 682

Same assay, conditions: source organism: Mammarenavirus choriomeningitidis

Sequence | IC50 [nM]
ALMDCIIFES | 507
LNMFVSDQV | 7

Same assay, conditions: source organism: SARS-CoV1

Sequence | IC50 [nM]
YVVVHGYFT | 212

Same assay, conditions: source organism: Vaccinia virus WR

Sequence | IC50 [nM]
AVKFAEESYT | 2290
DVNSVQFSIL | 2770
EATFIDVHI | 0.13
ELAYYNSCML | 650
ELIDVLKTRL | 1420
ETMYLTMKAI | 4
FVNFNSVKNL | 121
IAIFNNRNLA | 1490
ILKDPRIASI | 4520
ITRLEVIGLT | 1180
IVFGIYKDNL | 628
KINEMVDELV | 4960
KTPDYPLIDI | 1250
KTVKNVDII | 1160
LITLILSNKL | 1490
LTGTFVTAFI | 109
LTSVDIETAI | 221
LVAEHRFENM | 1400
LVFNSISARA | 168
LVKESMASL | 2070
NASKTINALV | 21

Sequence | IC50 [nM]
NIKISLNEIL | 1610
NITTLLNET | 1540
NITTLLNETA | 1720
PASISSVLTI | 4510
PLHIVCSKT | 1880
RQDYRRSINV | 3970
SAEVERLMEL | 2640
SAVFKDSFL | 110
SIAMLKSKNI | 2100
SIMSMMNIT | 2370
SIRCVKYLL | 244
STAEQLSKYV | 28
STFNMWREIL | 67
TITTFIPISA | 304
TIVSRSSRGV | 1260
TTNNLLEQL | 48
YAGTIKESL | 361
YAGTIKESLL | 1910
YIESKAKQL | 1340
YTFAISYCRA | 4
YVIRHVDGKI | 22
